Measurements taken from patent US20070286861A1, “Immunoglobulins” (published 2007).
Changes are numbered by the printed parent chain. Read-outs that look alike come from different tables or passages of the source. Each block holds one binder with its values, some of them ahead of it.

Key:
[1] = target: T1, glycosylated human OSM produced in CHO cells (human, glycosylated (CHO cell glycosylated)); experiment: gp130 inhibition ELISA (Table 4; OSM taken as CHO produced hOSM of FIG. 17)
T1 chain: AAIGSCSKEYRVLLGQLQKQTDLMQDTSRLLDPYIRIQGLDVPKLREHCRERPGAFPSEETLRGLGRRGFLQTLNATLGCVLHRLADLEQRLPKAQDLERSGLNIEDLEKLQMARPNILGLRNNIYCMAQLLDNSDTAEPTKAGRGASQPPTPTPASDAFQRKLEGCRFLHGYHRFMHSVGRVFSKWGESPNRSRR

[2] = target: T2, glycosylated human OSM produced in CHO cells (human)
T2 sequence (chain, glycosylated (CHO cell glycosylated)): T1 chain

[3] = target: T3, cynomolgus monkey OSM (cOSM) (cynomolgus monkey); experiment: gp130 inhibition ELISA, CHO supernatant
T3 chain: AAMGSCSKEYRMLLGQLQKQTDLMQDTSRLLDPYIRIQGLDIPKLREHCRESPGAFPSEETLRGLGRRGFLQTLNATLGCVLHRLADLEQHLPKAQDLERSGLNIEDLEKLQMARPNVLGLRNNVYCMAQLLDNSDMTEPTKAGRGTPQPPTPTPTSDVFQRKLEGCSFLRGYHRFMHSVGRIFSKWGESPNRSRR

[4] = target: T4, human Oncostatin M (hOSM) (human); experiment: gp130 inhibition ELISA, CHO supernatant; legend: NA: inhibition is less than 50%
T4 chain: T1 chain

[5] = target: T4, human Oncostatin M (hOSM); experiment: gp130 inhibition ELISA, CHO supernatant
[6] = target: T4, human Oncostatin M (hOSM); experiment: gp130 inhibition ELISA (antibody pre-incubated with OSM; OSM bound to plate-coated gp130-Fc detected)
[7] = target: T4, human Oncostatin M (hOSM)
[8] = target: T3, cynomolgus monkey OSM (cOSM); experiment: gp130 inhibition ELISA
[9] = target: T4, human Oncostatin M (hOSM); experiment: gp130 inhibition ELISA
[10] = target: T3, cynomolgus monkey OSM (cOSM)
[11] = target: T4, human Oncostatin M (hOSM)
[12] = target: T3, cynomolgus monkey OSM (cOSM); experiment: gp130 ELISA
[13] = target: T4, human Oncostatin M (hOSM); experiment: gp130 ELISA
[14] = target: T3, cynomolgus monkey OSM (cOSM); experiment: gp130 inhibition ELISA, CHO supernatant; legend: NA: inhibition is less than 50%

IC50 [1]: 0.035 mg/L
IL-6 release from KB cells (KB cell assay), IC50 [2]: 0.123 mg/L
B1: humanised 15E10 antibody B3L2 (wild type Fc) (antibody, V domains shown)
VH: QVQLVESGGGVVQPGRSLRLSCAASGFSLTNYGVHWVRQAPGKGLEWVAVIWRGGSTDYNAAFMSRFTISKDNSKNTLYLQMNSLRAEDTAVYYCAKSPNSNFYWYFDVWGRGTLVTVSS
VL: EIVLTQSPATLSLSPGERATLSCSGSSSVSYMYWYQQKPGQAPRLLIEDTSNLASGIPARFSGSGSGTDYTLTISNLEPEDFAVYYCQQWSSYPPTFGQGTKLEIKR

IC50 [3]: 0.167 mg/L
% inhibition [4]: < 50%
B2: humanised 15E10 antibody B4L1 (antibody, V domains shown)
VH: B1 VH with F67L
VL: EIVLTQSPATLSLSPGERATLSCSGSSSVSYMYWYQQKPGQAPRLLIYDTSNLASGIPARFSGSGSGTDFTLTISNLEPEDFAVYYCQQWSSYPPTFGQGTKLEIK

IC50 [3]: 0.11 mg/L
IC50 [5]: 0.334 mg/L
B3: humanised 15E10 antibody B1L2 (antibody, V domains shown)
VH: B1 VH with K71R, K97R
VL: B2 VL with Y48E, F70Y

IC50 [3]: 0.04 mg/L
IC50 [5]: 0.048 mg/L
B4: humanised 15E10 antibody B4L2 (antibody, V domains shown)
VH: B1 VH with F67L
VL: B1 VL

IC50 [1]: 0.009 mg/L
IC50 [6]: 0.059 mg/L
IL-6 release from KB cells (KB cell assay), IC50 [2]: 0.053 mg/L
IL-6 release from KB cells (KB cell assay), IC50 [7]: 0.195 mg/L
B5: 15E10 murine antibody (antibody, V domains shown)
VH: QVQLKQSGPGLVQPSQSLSITCTVSGFSLTNYGVHWVRQSPGKGLEWLGVIWRGGSTDYNAAFMSRLSITKDNSRSQVFFKMNSLQADDTAIYYCAKSPNSNFYWYFDVWGTGTTVTVSS
VL: QIVLTQSPTIMSASPGEKVTMTCSGSSSVSYMYWYQEKPGSSPRLLIEDTSNLASGVPARFSGSGSGTSYSLTISRMEAEDAATYYCQQWSSYPPTFGSGTKLEIK

IC50 [1]: 0.019 mg/L
IC50 [8]: 0.06 mg/L
IC50 [9]: 0.07 mg/L
IC50 [6]: 0.036 mg/L
IL-6 release from KB cells (KB cell assay), IC50 [2]: 0.079 mg/L
IL-6 release from KB cells (KB cell assay), IC50 [7]: 0.11 mg/L
B6: 15E10 chimaeric antibody (antibody, V domains shown)
VH: B5 VH
VL: B5 VL

IL-6 release from KB cells (KB cell assay), IC50 [10]: 0.07 mg/L
IL-6 release from KB cells (KB cell assay), IC50 [11]: 0.205 mg/L
IC50 [12]: 0.059 mg/L
IC50 [13]: 0.021 mg/L
B7: Humanised antibody 10D3 DLE (antibody, V domains shown)
VH: EVQLVQSGAEVKKPGASVKVSCKASGYIFTDYNMDWVRQAPGQKLEWIGDINPNNGGTIDNQKFKDRATLTVDKSTSTVYMELSSLRSEDTAVYYCARGIYYYGSHYFDYWGQGTLVTVSS
VL: EIVLTQSPSSLSASVGDRVTITCSATSSVSVMHWFQKKPGKAPKRWIYDTSKLASGVPSRFSGSGSGTDYTLTISSLQPEDFATYYCQQWSSNPLTFGGGTKVDIKR

IC50 [6]: 0.107 mg/L
IL-6 release from KB cells (KB cell assay), IC50 [7]: 0.114 mg/L
B8: 10D3 murine antibody (antibody, V domains shown)
VH: EVQLQQSGPELVKPGASVKISCKASGYIFTDYNMDWVKQSHGKKLEWIGDINPNNGGTIDNQKFKDKATLTVDKSSSTAYMELRSLTSEDTAVYYCARGIYYYGSHYFDYWGQGTTLTVSS
VL: QIVLTQSPAIMSASPGEKVTMTCSATSSVSVMHWFQKKSGTSPKRWIYDTSKLASGVPTRFSGSGSGTSYSLTISSMEAEDTATYYCQQWSSNPLTFGSGTKLELK

IC50 [6]: 0.057 mg/L
IC50 [12]: 0.246 mg/L
IC50 [13]: 0.032 mg/L
IL-6 release from KB cells (KB cell assay), IC50 [7]: 0.107 mg/L
B9: 10D3 chimaeric antibody (antibody, V domains shown)
VH: B8 VH
VL: B8 VL

% inhibition [14]: < 50%
% inhibition [4]: < 50%
B10: humanised 15E10 antibody B1L1 (antibody, V domains shown)
VH: QVQLVESGGGVVQPGRSLRLSCAASGFSLTNYGVHWVRQAPGKGLEWVAVIWRGGSTDYNAAFMSRFTISRDNSKNTLYLQMNSLRAEDTAVYYCARSPNSNFYWYFDVWGRGTLV
VL: B2 VL
